Measurements: the domain aggregation screens of Martell et al. (2025)

experiment: soluble fraction after stress (log2 fold change); higher = more stays soluble; pooled small domains, quantitative proteomics; conditions: stress: 75 degC
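Note: 20 min heating vs room temperature control held 20 min.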

Compared with “HMKIDELKAYLFQSVRVKNPHTQEYDTLKIIELNYYQDKIKAKLKNSDDDYITEMIFESIKHLQNFLG”, “HMKIEEIAYSTFISMLDKGEVSKVELKDNLIYIETKADDKTIYTTGRMEDPDLTNRLIEAGVDFTEIE” is higher in “soluble fraction (log2)” value: -2.81 for the first, -0.196 for the second.

“HMKIELSDNEKIIYDLLSSQHVLLSEIKDKAGLSNKAWDKSTKSLRKLGLIAVEKKDDDIYISKL” and “HMKIGIYPGTFDPITHGHTDIIRRSLRVFDKVVVAVAPNPSKHPLFTLTERLEMIRIVMKELEHVEVT” are within 0.2 log units of each other in “soluble fraction (log2)” value: -0.0288 for the first, 0.159 for the second.

“HMKILVTDDNIRIDKYLTTQTEYSRSTIQKMIESNNILVNNKPTKSNYILRNNDEITIDENFNEE” and “HMKININEASRYELMTIGGLDAGRADMLMQYRQKREISSADELKGINGFASYDTAKLQKSFEISP” are within 0.2 log units of each other in “soluble fraction (log2)” value: -0.00567 for the first, -0.0573 for the second.

Compared with “HMKIRKAVIPAAGLGTRVLPASKSIPKEMLPIVDKPVIQYIVEEAVKAGITEILIITGRGKGAIEDHFDRS”, “HMKISIDNPSVLLDKLATLFPDTSKNKLRKMLTEGRIYVNDNIEHRAKRELINGDTVKILDKTTSKE” is higher in “soluble fraction (log2)” value: -0.391 for the first, -0.121 for the second.

Compared with “HMKITAPLPGTITEIKVKVGDTVKNGDTVVVLEAMKMQNNIEAESNGTVTAIFVNKGDTVMEGDALMTI”, “HMKITTKNYFKAIAEVGVENLPAALKKSHDLIEERTSKGADWSVYEHDAEVRRVFDLTFEKLFEFIDQ” is lower in “soluble fraction (log2)” value: -0.075 for the first, -1.88 for the second.

“HMKKAITMGDIITVKELSEKIGIQVAEIIKKLMGLGILATINKELDYDTANVIASEFHIELERK” and “HMKKASLSTVEKKLMKQNYSNDTMENRLARVESYMFGTVFSSDDTQTRIDRISSAYNAQKSS” are within 0.2 log units of each other in “soluble fraction (log2)” value: 0.117 for the first, -0.0731 for the second.

Compared with “HMKKDLATYAYEHIKQMVIDRELMPGERIQQEVLARELGISRTPLVTALNRLASENLVELEANKGFSVRRF”, “HMKKEETEAEELEEKFTSAQIKQAYGILNDPRYKQGNYSGAVNVINKIAPGLADHPDVKNALKRANEEL” is higher in “soluble fraction (log2)” value: -0.451 for the first, 0.809 for the second.

“HMKKGRIGSIIQYVREHPGVSSSEIITGLGLDISPATIRRDLTLLVAENKLSVEGQNKGTKYFVSPTYDMF” and “HMKKIDVEVVRSQLIAWMADNGKSQAEVSKSMGISASALSMFIKGTYTGDNEQIGRKAAALMDLVHRQSA” are within 0.2 log units of each other in “soluble fraction (log2)” value: -1.22 for the first, -1.41 for the second.

“HMKKILITGNSGYIGSHLSKMLENDYEVHGLDIRQPQHPVAKFYEQDINRPINIEEEYDAVIHLAALV” and “HMKKILLGDVNLDGKVDVNDVTLLQRYIAGETEVITSKDALTATNFNKDGNIDVLDVTDIQTFIANSE” are within 0.2 log units of each other in “soluble fraction (log2)” value: -0.348 for the first, -0.293 for the second.

First: HMKKLTNKQIIFFAEKLAHHSDFASKYSKVGESYEEFAIRLEKELNTPQKVEFYSSYLEKVGFK
Second: HMKKPKTVLSEEQKEFIINQAQDGVSAYDIARILFPSVNVTNLSKEVIDVAEFIRDTDIKLLADSE
The “soluble fraction (log2)” value of the first is lower: -2.54 for the first, 0.00266 for the second.

Compared with “HMKKPRKTSRKSIENAAIFYLQRFSSSIENLRRVLMRRVYRSAQYHNTKPEEDAKIVDSIIYRLIETGVL”, “HMKKSRLHSVLEEIPGIGEKRRKILIKHFGTVEAIKKSSLEELARIKGMNRRAAQNVLEYLK” is lower in “soluble fraction (log2)” value: -0.322 for the first, -0.775 for the second.

Compared with “HMKKVIKIEENVSLQKLAALMSLKVTDVLMRLLSMGMSGVNINSTIDADTAKILASEFGWTVED”, “HMKKVKVPNVVGMSLKEARDALSAVNIAVNQVAGSVEDKSVVTEQSLKAGDEVDEGSSLNLTTEYK” is higher in “soluble fraction (log2)” value: -0.529 for the first, 0.878 for the second.

Compared with “HMKKYLTETEAAAYLNMPVEEIKAAITKGEIEQYVKTSSGYTISVEELDKFFGQKAYDTMTSNNS”, “HMKLASIGDNIHTLRKNKGLTQSQLAGKLGVNVDTISNYEKGVSTPDFDIVEKLVNIFNVDAHSLLFK” is lower in “soluble fraction (log2)” value: 0.0786 for the first, -0.287 for the second.

First: HMKLEKKWIEAVEKYRRYVLSTGIKHVQKPIEFENFRLGQWYADVRQSYRRGTLSKEKLLEIREINPDFPN
Second: HMKLFGTPGSPFARKVRIVLEEKRIPHEYIIERGSAPGSRVPQYNPLGKVPTLVLDDGRGLYDSPVIVEYL
The “soluble fraction (log2)” value of the first is lower: -2.17 for the first, -0.531 for the second.

Compared with “HMKLGYTVHGNVVTVKAVANGISLYNTIGQKVAESTDGQTVKAPAHGVYILSVQGKSGSRETAKIVI”, “HMKLHQDLQIKVIDAANNKVEFIDTATGTSLATRTLDVNGVSKARGFEATLYGVVEDNDVFHIA” is higher in “soluble fraction (log2)” value: -1.67 for the first, 0.121 for the second.

First: HMKLIRIPFILTEGPDSQKITIDVDGDEEFRLGDVFEEDDKLWTVNQILVSGERKAKRSMAGEVMRISALR
Second: HMKLNEQSMQVIDRIVDRHRGRPGPVKLMLHDVQKELGYIPFEAMEKIAAASGVSADEVYGVVTFYTQFTT
The “soluble fraction (log2)” value of the first is lower: -1.2 for the first, -0.919 for the second.

Compared with “HMKLNETIAEARKRKGLTQEQLAQKLYVTRQAVSRWERGEVVPGIDMLKLIAITLEEPIVHLL”, “HMKLQIQNIEIDKKISELAEGVSAEKLPFLAKLIDRSKLLNDKGEINEDSVKAAIEEVVKAFPDFK” is higher in “soluble fraction (log2)” value: -1.64 for the first, 0.0511 for the second.

First: HMKLRKINLIGIFGSKTAPSALVRLTNGRVLKVGLGELLDGGRVTAIGRSSLTYNKSGKSITLNMPI
Second: HMKLRYRTQEELLGVAREYRRRGLPLSVIVIDFYHWTKFGDWKFDPAYWPDPVGMVRELRDMGVEAAV
The “soluble fraction (log2)” value of the first is lower: -4.08 for the first, -0.17 for the second.

Compared with “HMKLSKKVTDFLAQMPSKSISPKMLANNLGLADDAGDYKHLLKTIAQLEESKAIEVTAAGNIALPQPE”, “HMKLSLKTQVKEYLLSYIRDKKLQPGDRLLTQRELAEMLHTSQKVAQMALNSLEEEGIIIRRLGSGSFLAR” is lower in “soluble fraction (log2)” value: -0.162 for the first, -1.31 for the second.

Compared with “HMKLTKPQEVFIQELLKGSSQYEAYLKAYPSKKTWKRNSIDTEASKLFKNAKIKQRYEELLYNIREE”, “HMKLTNNDFIRLKTFMYNNYGINLENKKTLIETRLAIVVKRLGFNDFKSYIDNLMRDKTGEQASIIVGKLT” is lower in “soluble fraction (log2)” value: -0.695 for the first, -2.83 for the second.

Going from “HMKLTPKQQQIYDFISSFADEHGYPPSVREIAQAVNLKSPATVHFHLKGLREAGYISQAEGKTRAITI” to “HMKMDGESQRLLSLIKEQGGSLPIGDKSSPEAIYRLTQMSKKTFKMALGSLYKAKQVVLSPTEVRL”, the “soluble fraction (log2)” value falls from -0.158 to -1.45.

“HMKMNFNEEEQKLLSEANVLVETNKTYTDDEVKGFSNKIVEHIMTFSKTDIPKVKSKFDPILFKI” and “HMKMTIEDLITQAKESNAAENYYEAFQLYSKAIDVLPNDPDLYSARGVVLFHLDRKEDSLIDMNKSVD” are within 0.2 log units of each other in “soluble fraction (log2)” value: -0.359 for the first, -0.17 for the second.

Compared with “HMKMVEIDYGKFLTMLDTGKVKSVEIENNRIAINPSSSKDKNIYITGRMDDPELVDRLKNAKVEFTKVIP”, “HMKNAYDLKMLVKDNDGNIERNMKYYFFLANGSKVEGITDDNGYTKTITTIQPEKADLHLINDELI” is lower in “soluble fraction (log2)” value: -0.0753 for the first, -1.61 for the second.

First: HMKNDIQLKHDVEEELQWDPAVDASRFAVQAKDGVVTLSGGVDTFADKHAAEEAIRRVAGVTALVIHVDV
Second: HMKNEFRVYPNPANKEIVTFNQTQDIEVYDTLGKLVLKAKNTNTLDTKSFHSGIYFIKTGSGLTRKLVV
The “soluble fraction (log2)” value of the first is higher: -0.27 for the first, -1.09 for the second.

Compared with “HMKNEQESIAQKLYEAALKNDFVTIQEIQSGGYRLRNDDLTHMRESGVQSNTLIAIQKIFGL”, “HMKNEQIFIVRPDAEGTRLDQWLAAQMASSEEAPSRMQIQRWIKAGLVEGQGTLNPARRIEAGESYTVKPG” is lower in “soluble fraction (log2)” value: 0.404 for the first, 0.0684 for the second.

Compared with “HMKNEYAMVIQVNGKLRGNMLVSADLEQKDIERMALDNEDIKRFISHENDVKKMIFVPKKLINIVT”, “HMKNIFDWLKQINYHKQPADSFTEKDWELFNSYMVHRFMSMNREFIEVVNYVQEMPPQEKILIYNIYREF” is lower in “soluble fraction (log2)” value: -1.21 for the first, -2.16 for the second.

Compared with “HMKNIINFIVKEDDNNKRVDMILANHDKSLSRTRVKNLILDSKLKINERIVQDPSIKTKLNDKIELEIVEP”, “HMKNIINLVIDGELHGKRIDAVIAQKNDSLSRTRIKNLVINGNLSINDEIVSDPSKKIYKDDKVSLTIPLP” is lower in “soluble fraction (log2)” value: 0.631 for the first, -0.322 for the second.

“HMKNIMRQWIELEPDQGKIRSKLYSLDRVVEETTNEVGMIKLLLEIDEKELNNLVSHNDIRLV” and “HMKNIRKQAIEAIDRIKNGNPIVISKNAKLIFKNIAKEANVSPTELHREFRDVMLYVNSLKAP” are within 0.2 log units of each other in “soluble fraction (log2)” value: -0.425 for the first, -0.346 for the second.

Going from “HMKNKVTVPKVEGMDKEEAIQALNEVGLGYKAVMQSSDSVAEGKVISQGTAAGKKVDKNTQIIITVSGG” to “HMKNLADNIVALRKKHGLSQEQFAEKIDVTRQAVSNWERRIATPDVETIDLIAKLFDTDLTALVNG”, the “soluble fraction (log2)” value falls from 0.237 to -0.342.

First: HMKNLKLVSNTDGIRIDSWLADEFEDYSRSYLRKLIDQDLVYVNGNKIKANYKLKKGDEISISIPEPE
Second: HMKNLTERQQQIIALISGNPLITRAEIASAIGFSVKTIERELSILSEIVSYVGSKKGGHWEIQT
The “soluble fraction (log2)” value of the first is higher: -0.151 for the first, -2.66 for the second.

Compared with “HMKNLTERQQRIIALISENPQTTRAEIAGAIGVATKTIERELTTLSNIVYYVGPKKGGHWEIIK”, “HMKNLTEVEYSEFLESIAQDRVSKVQVDGLIIRGEMNDGQRFETVQPQVTDKALIDDMVNHRVDFSGARP” is higher in “soluble fraction (log2)” value: -1.51 for the first, 0.295 for the second.

First: HMKNMSLGERIKEQRKSSGLSQEKVAEFVGVSRQAVTKWETGQSAPSTENLFKLAEIFGTTVDILLA
Second: HMKNNAIAPDQVVSLLKNEVNYNDDGRIEILDNNKNIRYNSKGELLTIEERVNEFLDANPHFRK
The “soluble fraction (log2)” value of the first is lower: -0.198 for the first, 0.0664 for the second.

Going from “HMKNSMANVQARREKILSAVDQSEPVAVEGLAQRFNVSITTLRRDLKALSDMGQVKWHHGLVERT” to “HMKNVADEVFEKMLNMIIEGDWKKGEMIPSENELREAFSVSRSTVRQAVQRLSALGIVRSRQGKGTYVEQV”, the “soluble fraction (log2)” value falls from -0.229 to -1.7.

Compared with “HMKNYYELLGVAREASQDQIKKAYRKLARKYHPDVSKEADAETRMQELNVAYDTLSDAEKKREYDFQLDHP”, “HMKPDDDMLLKILTKLFIQKQFVINSKDIFQYILKNTNRTYENIINIVNRLDTLSIEKKRQLTIPLIKEI” is lower in “soluble fraction (log2)” value: 0.0883 for the first, -0.585 for the second.

Compared with “HMKPEQIELTFSGTTAMRLDKFLAENQPGLSRAKLQAIISSGSVEVNGKVITKQAFKLDPGDLVKALIPE”, “HMKPGWEDIFRMNQIQLEDAVRTVNRDDTLAPTKKAYLIQNLLASRWIVGNQLQAQKDKTTE” is higher in “soluble fraction (log2)” value: -1.23 for the first, -0.126 for the second.

Compared with “HMKPGYVIQVNGTVTKIQSGLVYVKTPAAQYTLMRKYAPADAAVGDRVSLWINEEGMVIDVHGK”, “HMKPKDILLPNFTNLTLDEAKAKAEEVKLNLNVSEEKYDVQIEEGKIISQDPKYQPNYTVKEGSTVNVVVS” is higher in “soluble fraction (log2)” value: -2.03 for the first, ≥ 1.04 for the second.

First: HMKPLIIPLELMQRLSSDKQLEAGFNRFSKSKQHEFAAYIAAAKRVETKVKRLEKIIPLILSGEGLNDR
Second: HMKPLRPVHLEIQTHRLSPVGILRSSFRQAGKVMHSNHGRITGLNLEQLKLIQAAFAGEALPK
The “soluble fraction (log2)” value of the first is lower: -2.35 for the first, -0.158 for the second.

Going from “HMKPQIRRHEKITALVREHGFMSVEQLARELEVTPQTIRRDIGILSAENVLRRYHGGAALGD” to “HMKPSNLTSDERTQLLAQLKTAMGSDQYNQLRRQVGEEKLLEYVLDNVPGIQEEILGNRAVQENIDLH”, the “soluble fraction (log2)” value rises from -0.941 to 0.0107.

With “HMKPSTVSVPDVSGDKLSTAKMIIRKSGLKVGDVQKIEDDNVGAGKVVRTNPSAGSKKREGSSVDIFVASA” the “soluble fraction (log2)” value was -0.0331.
